These are literature values, as cited in publication PMC6667139.

This data set addresses TGFβ receptor I and II (Homo sapiens) (UniProt P36897).

TGFβ, sequence (P01137 279-390): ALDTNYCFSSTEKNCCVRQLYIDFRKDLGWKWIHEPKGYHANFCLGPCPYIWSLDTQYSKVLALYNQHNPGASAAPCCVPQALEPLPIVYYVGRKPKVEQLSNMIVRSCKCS
TGFβ receptor I and II (Homo sapiens), sequence (P36897 34-126, chain 1 of 2): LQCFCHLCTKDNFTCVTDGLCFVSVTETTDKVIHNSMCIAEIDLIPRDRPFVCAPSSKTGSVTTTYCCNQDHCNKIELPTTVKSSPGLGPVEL
TGFβ receptor I and II (Homo sapiens), sequence (partner, as listed by the source, chain 2 of 2): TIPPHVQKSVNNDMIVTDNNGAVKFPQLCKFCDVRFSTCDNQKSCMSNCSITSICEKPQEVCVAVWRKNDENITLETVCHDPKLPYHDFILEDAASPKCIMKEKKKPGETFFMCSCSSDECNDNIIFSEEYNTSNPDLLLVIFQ

One may read the Kd as the constant that tells how readily two partners part at equilibrium. Consider TGFβ (from UniProt P01137), for which the dissociation constant (Kd) is 0.05 nM.
